Results on 3 molecules are retold here after US20150191515A1 (SYNTHETIC GENOMICS, published 2015).

The target of experiment [1] is T1, Hap-1742 (HapY), non-LEC1-type HAP3-like / NF-YB subunit of a CCAAT-box binding factor from Nannochloropsis … (Nannochloropsis gaditana).
T1 construct: also called Nannochloropsis NF-YB polypeptide
T1 chain: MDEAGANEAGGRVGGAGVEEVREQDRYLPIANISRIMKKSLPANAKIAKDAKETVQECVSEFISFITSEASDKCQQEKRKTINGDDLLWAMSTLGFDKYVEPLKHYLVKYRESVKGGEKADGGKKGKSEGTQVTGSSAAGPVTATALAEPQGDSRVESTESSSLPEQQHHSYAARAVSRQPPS
Description: yeast two hybrid screen, Hap-1742 bait against Nannochloropsis cDNA prey library. On the procedure: Based on these numbers, it is estimated that more than 10 million interactions were tested.

Experiment [2] has as its target T1, Hap-1742 (HapY), non-LEC1-type …. Put plainly: yeast two hybrid, NF-YA-1257 prey strain mated with Hap-1742 bait strain.

B1: EUKT6092, Nannochloropsis NF-YC polypeptide (other)
chain: MSGASGNGANPAVQQPYIPTDAEQAEHLQNLIRKLKDFWVEQLAEMETLSLASEQDFKNYIDLPLARIKRIMKSDEDVHMISAEVLVLFAKACEMFILELTIRSWCYSERSKRRTLQREDIQAAIANADILDFLVNIV
notes: Yeast two hybrid prey clone from a cDNA library in pGADT7-rec (Clontech), in yeast strain Y2HGold; also called NF-Y C subunit; HAP5 polypeptide
B1: the binding result in experiment [1] is listed as “binds”.

B2: EUKT1490, Nannochloropsis NF-YC polypeptide (other)
chain: MRLYRQIKKASMSRSPEVLQTSNSALSYASPSQAPSGAAIMMPTAPALPGRSTNTPNTQTGTEERKRDTPEGPKPSPLAGTPASMKAEEAPVSSKKARNAPIPPLSTSNAYVTEDTTLAIPRASIKRIMKLDPDTKQLSQDAIMVMAKATELFIDKLAKASHSMAVTNKRKTIKYEDIADARFSQKNMEFLDGVVPQIP
notes: as for B1
Regarding B2, in experiment [1], the binding result was “binds”.

B3: NF-YA-1257 (EUKT1257), Nannochloropsis NF-Y subunit A (other)
chain: MDGAETGSGGDSDSGGGRKKIVRPCSSAETSLSMDVTATSYQGTNFNHMLSHGAPASAMVETHDGEGSLCPFPFQPPPHQQHNLQYQQPQEHQMQQTYYGQMNDDGNNFYDHSPHMEGFEPLGAPQEAAGSDLGPQPIFVNPKQYERIMKRREARARLENHRKIAAERKPFLHKSRHLHAVKRPRGPGGRFLTKEERIAWDEEQAQLEGTSTMGAVHVSNEVAAKTLYSSAQASIAAGPPLASQQGSRHASPPFSSPLSSSSCLPPSASTPVAPSGPSSYCSSSPII
notes: The open reading frame was cloned into prey vector pGADT7 (Clontech) and expressed in yeast strain Y2HGold; also called CBF-B/NF-YA
In the case of B3, the binding result in experiment [2] is listed as “binds”.
